From patent US20240360228A1 (BIOLEGEND, published 2024)
Numbering of substitutions follows the chain as printed.

How the values were obtained:
human CCR8 [1] = molecular target: T1, human CCR8 (human, UniProt P51685 1-355); experiment: flow blocking, PBMC CCR8+CD3+; competitor PE-AB5
T1 construct: Native CCR8 on human PBMC (CCR8+ CD3+ or CCR8+ CD4+ lymphocytes); also called chemokine (C-C motif) receptor 8
Method: (§1) For blocking studies, 100 μL of the cell suspension were incubated with 10 μg purified isotype control, AB1, AB2, AB3, AB4, AB5, AB8, AB9, AB10, AB11, AB12, AB13, AB14, AB15, and Commercial ABI antibodies, or isotype control, as blocking agents.
(§2) After incubation with the blocking agent, the cells were incubated with 0.25 μg of the indicated PE-conjugated antibody plus anti-human CD4 APC or anti-human CD3 for another 15 minutes in the dark and then washed 2 times with Cell Staining Buffer, and acquired in a FACSCanto II flow cytometer (BD Biosciences); the data was analyzed using FCS Express (De Novo Software); MFI correspond to the CCR8+ CD4+ lymphocytes or CCR8+ CD3+ lymphocytes.
(§3) Percentage original MFI was calculated by dividing the MFI of samples blocked with AB1, AB2, AB3, AB4, AB5, AB6, AB7, AB8, AB9, AB10, AB11, AB12, AB13, AB14, AB15, and Commercial ABI antibodies, by the MFI of samples blocked with the corresponding isotype control. This value was subtracted from 100 to get a blocking percentage. The formula is shown below: […]

human CCR8 [2] = molecular target: T1, human CCR8; experiment: flow blocking, PBMC CCR8+CD3+; competitor PE-AB6
Method: as §1, §2, §3

human CCR8 [3] = molecular target: T1, human CCR8; experiment: flow blocking, PBMC CCR8+CD3+; competitor PE-AB7
Method: as §1, §2, §3

human CCR8 [4] = molecular target: T1, human CCR8; experiment: flow blocking, PBMC CCR8+CD3+; competitor PE-AB8
Method: as §1, §2, §3

human CCR8 [5] = molecular target: T1, human CCR8; experiment: flow blocking, PBMC CCR8+CD4+; competitor PE-AB1
How it was run: (§4)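 Cells pre-incubated with 10 μg blocking antibody or isotype control, then stained 15 min with 0.25 μg PE-conjugated competitor plus anti-CD4 or anti-CD3. Competitor MFI read by flow cytometry on CCR8+ CD4+ or CD3+ lymphocytes; blocking % = 100 − (MFI vs isotype-blocked sample, as %).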

human CCR8 [6] = molecular target: T1, human CCR8; experiment: flow blocking, PBMC CCR8+CD4+; competitor PE-AB2
How it was run: as §4

human CCR8 [7] = molecular target: T1, human CCR8; experiment: flow blocking, PBMC CCR8+CD4+; competitor PE-AB3
How it was run: as §4

human CCR8 [8] = molecular target: T1, human CCR8; experiment: flow blocking, PBMC CCR8+CD4+; competitor PE-AB4
How it was run: as §4

human CCR8 [9] = molecular target: T1, human CCR8; experiment: flow blocking, PBMC CCR8+CD4+; competitor PE-AB5
How it was run: as §4

human CCR8 [10] = molecular target: T1, human CCR8; experiment: flow blocking, PBMC CCR8+CD4+; competitor PE-AB6
human CCR8 [11] = molecular target: T1, human CCR8; experiment: flow blocking, PBMC CCR8+CD3+; competitor PE-433H
Method: as §1, §2, §3

human CCR8 [12] = molecular target: T1, human CCR8; experiment: flow blocking, PBMC CCR8+CD3+; competitor PE-AB10
Method: as §1, §2, §3

human CCR8 [13] = molecular target: T1, human CCR8; experiment: flow blocking, PBMC CCR8+CD3+; competitor PE-AB11
Method: as §1, §2, §3

human CCR8 [14] = molecular target: T1, human CCR8; experiment: flow blocking, PBMC CCR8+CD3+; competitor PE-AB12
Method: as §1, §2, §3

human CCR8 [15] = molecular target: T1, human CCR8; experiment: flow blocking, PBMC CCR8+CD3+; competitor PE-AB13
Method: as §1, §2, §3

human CCR8 [16] = molecular target: T1, human CCR8; experiment: flow blocking, PBMC CCR8+CD3+; competitor PE-AB14
Method: as §1, §2, §3

human CCR8 [17] = molecular target: T1, human CCR8; experiment: flow blocking, PBMC CCR8+CD3+; competitor PE-AB15
Method: as §1, §2, §3

human CCR8 [18] = molecular target: T1, human CCR8; experiment: flow blocking, PBMC CCR8+CD4+; competitor PE-433H
How it was run: (§5)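 Human PBMC (100 μL suspension) were pre-blocked with 10 μg of each unlabelled anti-CCR8 antibody or isotype control. Cells were then stained 15 min in the dark with 0.25 μg of the PE-conjugated competitor antibody plus anti-CD4 or anti-CD3. Read-out by flow cytometry as MFI on CCR8+CD4+ or CCR8+CD3+ lymphocytes.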

human CCR8 [19] = molecular target: T1, human CCR8; experiment: flow blocking, PBMC CCR8+CD4+; competitor PE-AB10
How it was run: as §4

human CCR8 [20] = molecular target: T1, human CCR8; experiment: flow blocking, PBMC CCR8+CD4+; competitor PE-AB11
How it was run: as §4

human CCR8 [21] = molecular target: T1, human CCR8; experiment: flow blocking, PBMC CCR8+CD4+; competitor PE-AB12
How it was run: as §4

human CCR8 [22] = molecular target: T1, human CCR8; experiment: flow blocking, PBMC CCR8+CD4+; competitor PE-AB13
How it was run: as §5

human CCR8 [23] = molecular target: T1, human CCR8; experiment: flow blocking, PBMC CCR8+CD4+; competitor PE-AB14
How it was run: as §5

human CCR8 [24] = molecular target: T1, human CCR8; experiment: flow blocking, PBMC CCR8+CD4+; competitor PE-AB15
How it was run: as §4

human CCR8 [25] = molecular target: T1, human CCR8; experiment: flow blocking, PBMC CCR8+CD3+; competitor PE-L263G8
Method: as §1, §2, §3

T1 sequence (P51685 whole entry): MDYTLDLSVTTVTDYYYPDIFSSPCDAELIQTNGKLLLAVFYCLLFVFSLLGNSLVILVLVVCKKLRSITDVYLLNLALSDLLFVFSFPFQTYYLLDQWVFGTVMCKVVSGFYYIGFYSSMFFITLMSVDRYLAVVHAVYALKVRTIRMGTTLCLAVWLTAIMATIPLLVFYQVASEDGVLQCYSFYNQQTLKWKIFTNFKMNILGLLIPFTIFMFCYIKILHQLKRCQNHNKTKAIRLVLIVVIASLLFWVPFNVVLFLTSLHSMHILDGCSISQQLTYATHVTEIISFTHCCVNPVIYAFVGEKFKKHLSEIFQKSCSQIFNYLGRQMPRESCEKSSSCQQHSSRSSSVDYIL

B1: AB10 (antibody, V domains shown)
VH: EVQLVETGGGLVQPKGSLKLSCAVSGFTFKTNAMNWVRQAPGKGLEWVARIRSKSNKYATYYADSVKDRFTISRDDSQSMLYLQMNNLKTEDTAMYYCVRGSEMGYYYAMDYWGQGTSVTVSS
VL: DIVMTQAAPSVPVTPGESVSISCRSSKSLLHSNGNTYLYWFLQRPGQSPQLLIYRMSNLASGVPDRFSGSGSGTAFTLRISRVEAEDVGVYYCMQHLEYPFTFGGGTKLEIK
notes: Hybridoma monoclonal; also called antibody 10; clone 10
- % Blocking (human CCR8 [1]): -8.37%
- MFI (human CCR8 [1]): 1070
- % Blocking (human CCR8 [2]): -27%
- MFI (human CCR8 [2]): 1170
- % Blocking (human CCR8 [3]): 52.1%
- MFI (human CCR8 [3]): 559
- % Blocking (human CCR8 [4]): 51.6%
- MFI (human CCR8 [4]): 575
- % Blocking (human CCR8 [5]): -47.1%
- % Positive cells (human CCR8 [5]): 2.28%
- % Blocking (human CCR8 [6]): -40.2%
- % Positive cells (human CCR8 [6]): 2.3%
- % Blocking (human CCR8 [7]): -50.9%
- % Positive cells (human CCR8 [7]): 2.58%
- % Blocking (human CCR8 [8]): -38.8%
- % Positive cells (human CCR8 [8]): 2.47%
- % Blocking (human CCR8 [9]): -17.8%
- % Positive cells (human CCR8 [9]): 2.38%
- % Blocking (human CCR8 [10]): -7.92%
- % Positive cells (human CCR8 [10]): 2.18%
- % Blocking (human CCR8 [11]): 32.1%
- MFI (human CCR8 [11]): 602
- % Blocking (human CCR8 [12]): 30.7%
- MFI (human CCR8 [12]): 552
- % Blocking (human CCR8 [13]): 55.2%
- MFI (human CCR8 [13]): 416
- % Blocking (human CCR8 [14]): 47.6%
- MFI (human CCR8 [14]): 536
- % Blocking (human CCR8 [15]): 43.6%
- MFI (human CCR8 [15]): 499
- % Blocking (human CCR8 [16]): 38.9%
- MFI (human CCR8 [16]): 528
- % Blocking (human CCR8 [17]): 43.3%
- MFI (human CCR8 [17]): 487
- % Blocking (human CCR8 [18]): 28.4%
- % Positive cells (human CCR8 [18]): 1.26%
- % Blocking (human CCR8 [19]): 93.2%
- % Positive cells (human CCR8 [19]): 0.1%
- % Blocking (human CCR8 [20]): 98.5%
- % Positive cells (human CCR8 [20]): 0.03%
- % Blocking (human CCR8 [21]): 98.9%
- % Positive cells (human CCR8 [21]): 0.02%
- % Blocking (human CCR8 [22]): 97.5%
- % Positive cells (human CCR8 [22]): 0.05%
- % Blocking (human CCR8 [23]): 89.2%
- % Positive cells (human CCR8 [23]): 0.14%
- % Blocking (human CCR8 [24]): 88.4%
- % Positive cells (human CCR8 [24]): 0.15%
- % Blocking (human CCR8 [25]): 10.2%
- MFI (human CCR8 [25]): 605

B2: AB11 (antibody, V domains shown)
VH: EVQLVESGGGLVQPKGSLKLSCAASGFAFNTYAMNWVRQAPGKGLEWIARLRSKSNFYATYYADSVKDRFTISRDDSQSMLYLQMNNLKTEDTAVYYCVRGRELGPSYAMDYWGQGTSVTVSS
VL: B1 VL with F101Y
notes: Hybridoma monoclonal; also called antibody 11; clone 11
- % Blocking (human CCR8 [1]): -2.94%
- MFI (human CCR8 [1]): 1020
- % Blocking (human CCR8 [2]): -8.93%
- MFI (human CCR8 [2]): 1010
- % Blocking (human CCR8 [3]): 13.1%
- MFI (human CCR8 [3]): 1020
- % Blocking (human CCR8 [4]): 17.8%
- MFI (human CCR8 [4]): 977
- % Blocking (human CCR8 [5]): -31.6%
- % Positive cells (human CCR8 [5]): 2.04%
- % Blocking (human CCR8 [6]): -22.6%
- % Positive cells (human CCR8 [6]): 2.01%
- % Blocking (human CCR8 [7]): -26.3%
- % Positive cells (human CCR8 [7]): 2.16%
- % Blocking (human CCR8 [8]): -27%
- % Positive cells (human CCR8 [8]): 2.26%
- % Blocking (human CCR8 [9]): -27.7%
- % Positive cells (human CCR8 [9]): 2.58%
- % Blocking (human CCR8 [10]): -5.45%
- % Positive cells (human CCR8 [10]): 2.13%
- % Blocking (human CCR8 [11]): 43.3%
- MFI (human CCR8 [11]): 503
- % Blocking (human CCR8 [12]): 34.4%
- MFI (human CCR8 [12]): 522
- % Blocking (human CCR8 [13]): 42.7%
- MFI (human CCR8 [13]): 532
- % Blocking (human CCR8 [14]): 48%
- MFI (human CCR8 [14]): 531
- % Blocking (human CCR8 [15]): 34.6%
- MFI (human CCR8 [15]): 579
- % Blocking (human CCR8 [16]): 41.4%
- MFI (human CCR8 [16]): 506
- % Blocking (human CCR8 [17]): 52%
- MFI (human CCR8 [17]): 412
- % Blocking (human CCR8 [18]): 38.6%
- % Positive cells (human CCR8 [18]): 1.08%
- % Blocking (human CCR8 [19]): -2.7%
- % Positive cells (human CCR8 [19]): 1.52%
- % Blocking (human CCR8 [20]): 96.9%
- % Positive cells (human CCR8 [20]): 0.06%
- % Blocking (human CCR8 [21]): 98.3%
- % Positive cells (human CCR8 [21]): 0.03%
- % Blocking (human CCR8 [22]): 96.5%
- % Positive cells (human CCR8 [22]): 0.07%
- % Blocking (human CCR8 [23]): 99.2%
- % Positive cells (human CCR8 [23]): 0.01%
- % Blocking (human CCR8 [24]): 93.8%
- % Positive cells (human CCR8 [24]): 0.08%
- % Blocking (human CCR8 [25]): 36.6%
- MFI (human CCR8 [25]): 427
